Source: article PMC7178897

Key:
[1] = SEC; GNL-purified Env from 293F supernatant on a Superdex 200 Increase 10/300 GL column; profile decomposed into aggregates, trimer and dimer/monomer fractions (UNICORN)
[2] = biological target: CNE5 chimeric UFO trimer with CNE6 gp41_(ECTO) (HIV-1); assay: negative-stain EM; purified Env proteins at 0.05 mg/ml, 2% uranyl acetate, reference-free 2D class averages
[3] = biological target: MG11 chimeric UFO trimer with CNE6 gp41_(ECTO) (HIV-1); assay: as above
[4] = biological target: CNE107 chimeric UFO trimer with CNE6 gp41_(ECTO) (HIV-1); assay: as above
MG13 UFO trimer (HIV-1) [5] = assay: as above
MG13 UFO trimer (HIV-1) [6] = assay: native gel or EMSA
BG505 UFO trimer (HIV-1) [7] = assay: negative-stain EM; purified Env proteins at 0.05 mg/ml, 2% uranyl acetate, reference-free 2D class averages
BG505 UFO trimer (HIV-1) [8] = assay: native gel or EMSA
CNE6 UFO trimer (HIV-1) [9] = assay: negative-stain EM; purified Env proteins at 0.05 mg/ml, 2% uranyl acetate, reference-free 2D class averages
CNE6 UFO trimer (HIV-1) [10] = assay: native gel or EMSA

CNE6 UFO trimer
trimer content (% of the SEC profile) [1]: as high as 70.1% for CNE6

CNE5 chimeric UFO trimer with CNE6 gp41_(ECTO) (domain or fragment)
stoichiometry N [2]: 3

MG11 chimeric UFO trimer with CNE6 gp41_(ECTO) (domain or fragment)
stoichiometry N [3]: 3

CNE107 chimeric UFO trimer with CNE6 gp41_(ECTO) (domain or fragment)
stoichiometry N [4]: 3

MG13 UFO trimer
trimer content (% of the SEC profile) [1]: 85.6% for MG13

MG13 UFO trimer (domain or fragment)
stoichiometry N (MG13 UFO trimer (HIV-1) [5]): 3
stoichiometry N (MG13 UFO trimer (HIV-1) [6]): 3

CNE6 SOSIP trimer
trimer content (% of the SEC profile) [1]: 21.3% for the SOSIP construct

BG505 UFO trimer
trimer content (% of the SEC profile) [1]: a rate of proper trimer folding of about 75.5%

BG505 UFO trimer (domain or fragment)
stoichiometry N (BG505 UFO trimer (HIV-1) [7]): 3
stoichiometry N (BG505 UFO trimer (HIV-1) [8]): 3

CNE6 UFO trimer (domain or fragment)
stoichiometry N (CNE6 UFO trimer (HIV-1) [9]): 3
stoichiometry N (CNE6 UFO trimer (HIV-1) [10]): 3
